Patent publication US20260028391A1

Experiments:
[1] = molecular target: biot-MPV-F D280N (metapneumovirus (MPV)); assay: BLI (Octet), biotinylated F on SA sensors, mAb 5 µg/ml; batch KYT
[2] = molecular target: biot-MPV-F wt (metapneumovirus (MPV)); assay: as above
[3] = molecular target: biot-RSV-F wt (respiratory syncytial virus (RSV)); assay: as above
[4] = molecular target: biot-MPV-F D280N (metapneumovirus (MPV)); assay: BLI (Octet), biotinylated F on SA sensors, mAb 5 µg/ml; forced deamidation sample, day 0
[5] = molecular target: biot-MPV-F wt (metapneumovirus (MPV)); assay: as above
[6] = molecular target: biot-RSV-F wt (respiratory syncytial virus (RSV)); assay: as above
[7] = molecular target: biot-MPV-F D280N (metapneumovirus (MPV)); assay: BLI (Octet), biotinylated F on SA sensors, mAb 5 µg/ml; forced deamidation sample, day 7 at 40 °C
[8] = molecular target: biot-MPV-F wt (metapneumovirus (MPV)); assay: as above
[9] = molecular target: biot-RSV-F wt (respiratory syncytial virus (RSV)); assay: as above
[10] = molecular target: biot-MPV-F D280N (metapneumovirus (MPV)); assay: BLI (Octet), biotinylated F on SA sensors, mAb 5 µg/ml; forced deamidation sample, day 13 at 40 °C
[11] = molecular target: biot-MPV-F wt (metapneumovirus (MPV)); assay: as above
[12] = molecular target: biot-RSV-F wt (respiratory syncytial virus (RSV)); assay: as above
[13] = molecular target: biot-RSV-F wt (respiratory syncytial virus (RSV)); assay: BLI, SA sensor loaded with biot-RSV-F wt, mAb 5 ug/ml, 4 min association, 6 min dissociation
[14] = molecular target: biot-MPV-F wt (metapneumovirus (MPV)); assay: BLI, SA sensor loaded with biot-MPV-F wt, mAb 5 ug/ml, 4 min association, 6 min dissociation
[15] = molecular target: biot-MPV-F D280N (metapneumovirus (MPV)); assay: BLI, SA sensor loaded with biot-MPV-F D280N (sheet title 'MPV-G D280N'), mAb 5 ug/ml, 4 min association, 6 min dissociation
[16] = molecular target: RSV F A N208Y-N671I (RSV A, strain A2) (UniProt P03420); assay: FACS, % binding to RSV F A variants
[17] = molecular target: RSV F A S433P (RSV A, strain A2) (UniProt P03420); assay: FACS, % binding to RSV F A variants
[18] = molecular target: RSV F A S433P-G446E (RSV A, strain A2) (UniProt P03420); assay: FACS, % binding to RSV F A variants

| Binder | Kd [1] [pM] | Kd [2] [pM] | Kd [3] [pM] | Kd [4] [pM] | Kd [5] [pM] | Kd [6] [pM] | Kd [7] [pM] | Kd [8] [pM] | Kd [9] [pM] | Kd [10] [pM] | Kd [11] [pM] | Kd [12] [pM] | Kd [13] [pM] | Kd [14] [pM] | Kd [15] [pM] | % binding [16] [%] | % binding [17] [%] | % binding [18] [%] |
| --- | --- | --- | --- | --- | --- | --- | --- | --- | --- | --- | --- | --- | --- | --- | --- | --- | --- | --- |
| MPK190-rIgG1-LS (antibody, V domains shown) VH: EVQLVESGGGLVKPGGSLTLSCAASGFSISGYGMNWVRQAPGRGLEWVASISASSTYIYYADSMKGRFTISRDNGKTSLYLQMKSLRAEDTAVYYCARAPIEPPYFDLWGRGTLVTVSS VL: QSVLTQPPSVSGAPGQRVTISCTGSNSNIGAGYDVHWYQHLPGKAPKVLIYGNNNRPSVVPDRFSGSNSGASASLAISGLQAEDEADYFCQSYDRRLSGPIFGGGTKLTVL | 370 | < 1 | 53.9 | 441 | < 1 | < 1 | 600 | 15.9 | 128 | 733 | 57.7 | 304 | < 1 | < 1 | 381 |  |  |  |
| MPK65-v2-v1.2 (antibody, V domains shown) VH: QVPLVQSGAEVKKPGESLKISCKGSGYSFINYWIGWVRQMPGKGLEWMGVIYPFDSDTKYSPSFQGHVTISADKSSNTAYVQWSSLKASDTAMYYCARFTFGIAVVTDDVSGEGQAFEIWGQGTMVTVSS VL: QIVMMQSPATLSVSPGERATLSCRASQSVAGNLAWYQQRPGQAPRLLIYGASTRATGVPARFSGSGSETEFTLTISSLQSEDFAVYYCHQYSNLPQAFGQGTRLDIK |  |  |  |  |  |  |  |  |  |  |  |  |  |  |  | 0.38 | 31.7 | 32.9 |
